Measurements: the supplement of paper PMC10567573

B1: HSP90AB1 (parent)
chain: QVANSAFVERVRKRGFEVVYMTEP
B2: C1orf55 (parent)
chain: FTSPDYQQQCHEMAERLEDSVLKG

Variants of: B1
Experiment: protein stability index of a GFP-peptide fusion (GPS, HEK-293T) (PSI 1-6); higher = more stable
Conditions: c terminus: a fixed tail appended
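Also: lentivirally expressed fusions sorted by FACS into six bins by GFP to DsRed ratio, PSI derived from sequencing read proportions per bin multiplied by bin number.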

Variant | protein stability index
E23K | 2.13
E23L | 1.16
E23Q | 1.9
E23S | 2.54
E23H | 1.95
E23D | 2.81
E23W | 2.14
E23P | 2.19
E23N | 1.83
E23M | 2.56
E23V | 2.38
E23C | 2.67
E23I | 1.69
E23A | 2.88
E23G | 1.78
E23F | 1.62
E23T | 1.89
E23Y | 1.66
E23R | 2.47
V18Q | 2.59
V18P | 2.47
V18T | 2.67
V18F | 1.85
V18D | 2.88
V18N | 3.1

Variant | protein stability index
V18L | 2.58
V18S | 2.57
V18W | 2.05
V18A | 2.96
V18E | 2.99
V18H | 2.83
V18K | 2.12
V18C | 2.38
T22S | 2.7
T22Y | 1.95
T22Q | 2.54
T22N | 2.51
T22A | 2.89
T22H | 1.91
T22V | 1.63
T22F | 1.68
T22C | 2.12
T22W | 1.55
T22L | 1.7
T22P | 2.38
T22G | 2
T22M | 1.91
T22I | 1.81
T22E | 2.56
Y20Q | 3.41

Variant | protein stability index
Y20G | 3.52
Y20E | 3.37
Y20P | 2.81
Y20T | 2.69
Y20L | 2.22
Y20W | 1.96
Y20C | 2.99
Y20D | 3.06
Y20H | 3.07
Y20V | 3.05
Y20R | 3.23
Y20A | 2.62
Y20N | 3.62
Y20I | 1.78
Y20K | 2.6
E17T | 1.87
E17Y | 2.6
E17S | 2.49
E17R | 2.19
E17Q | 1.51
E17P | 2.02
E17V | 1.89
P24L | 1.21
P24H | 2.1
P24M | 2.14

Variant | protein stability index
P24Q | 2.52
P24Y | 1.89
P24W | 2.09
P24R | 2
P24I | 2.03
P24T | 2.48
P24D | 3.18
P24N | 2.32
P24F | 1.63
P24K | 2.44
P24E | 3.13
P24G | 2.42
P24C | 2.2
V19R | 2.57
V19A | 2.83
V19M | 1.84
V19Y | 1.98
V19P | 2.79
V19Q | 2.33
V19L | 2.09
V19C | 2.79
V19K | 2.69
V19E | 3.43
V19T | 2.93
V19W | 1.42

Variant | protein stability index
V19S | 2.68
V19N | 3.15
V19I | 2.15
V19G | 2.75
V19F | 1.53
M21G | 2.65
M21W | 3.09
M21Y | 2.04
M21I | 1.98
M21L | 2.6
M21R | 3.33
M21P | 2.8
M21A | 2.11
M21E | 3.06
M21T | 3.05
M21C | 2.41
M21D | 2.96
M21Q | 3.1
M21N | 2.77
M21H | 3.37
M21F | 2.06

Variants of: B2
Experiment: as above
Conditions: c terminus: a fixed tail appended

Variant | protein stability index
E12H | 2.36
E12G | 2.13
E12C | 1.93
E12F | 3.35
E12A | 2.79
E12D | 2.56
C10Q | 3.47
C10Y | 3.3
C10W | 2.05
C10E | 4.53
C10L | 2.55
C10K | 3.46
C10R | 3.69
C10N | 3.37
C10F | 2.14
C10H | 2.74
C10V | 2.29
C10A | 3.17
C10G | 3.29
C10P | 3.87
C10T | 2.26
C10D | 4.68
C10S | 2.87
C10I | 2.59

Variant | protein stability index
C10M | 2.41
Q7A | 1.12
Q7S | 2.24
Q7E | 3.92
Q7I | 1.81
Q7K | 2.07
Q7D | 4.18
Q7G | 2.05
Q7T | 2.02
Q7R | 1.85
Q7M | 2.01
Q7N | 3.16
Q7C | 1.68
Q7V | 2.02
Q7Y | 3.06
Q7H | 2.14
Q7L | 2.13
Q7P | 2.27
Q7F | 3.33
P4K | 2.41
P4H | 2.63
P4S | 2.26
P4A | 2.37
P4T | 2.06

Variant | protein stability index
P4I | 2.37
P4R | 2.8
P4Q | 2.62
P4L | 2.18
P4E | 4.3
P4Y | 1.98
P4W | 2.61
P4M | 2.23
P4V | 2.09
P4N | 2.52
P4G | 2.06
P4D | 4.06
P4F | 2.6
P4C | 2.87
Q8E | 3.44
Q8N | 2.62
Q8G | 2.81
Q8Y | 1.99
Q8C | 1.64
Q8K | 2
Q8V | 2.47
Q8M | 1.59
Q8T | 2.6
Q8I | 1.63

Variant | protein stability index
Q8A | 1.96
Q8S | 2.18
Q8L | 1.68
Q8W | 2.04
Q8F | 2.44
Q8H | 2.35
Q8D | 3.9
Q8P | 4.29
Q8R | 1.72
Q9F | 2.12
Q9T | 1.38
Q9K | 1.92
Q9S | 1.94
Q9V | 2.21
Q9D | 3.87
Q9C | 1.84
Q9L | 1.7
Q9E | 3.26
Q9M | 2.08
Q9P | 2.59
Q9G | 1.92
Q9N | 1.52
Q9H | 1.85
Q9R | 1.28

Variant | protein stability index
Q9I | 1.29
Q9W | 2.98
Q9Y | 2.09
Q9A | 1.95
D5H | 2.03
D5P | 2.94
D5I | 2.15
D5L | 2.33
D5G | 1.8
D5F | 2.09
D5R | 2.03
D5M | 2.12
D5V | 1.86
D5Q | 2.29
D5E | 2.41
D5K | 2.57
D5W | 2.62
D5C | 3.59
D5T | 2.17
D5Y | 2.28
D5N | 2.47
D5S | 1.81
D5A | 2.15
H11K | 2.1

Variant | protein stability index
H11T | 2.1
H11P | 2.66
H11A | 2.83
H11E | 2.95
H11N | 2.13
H11M | 2.33
H11V | 2.52
H11R | 2.45
H11D | 2.83
H11F | 2.26
H11I | 2.61
H11S | 2.13
H11G | 2.35
H11Y | 1.87
H11L | 1.87
H11Q | 2.87
H11C | 1.8
S3C | 2.83
S3V | 3.92
S3H | 3.34
S3E | 4.12
S3Y | 3.13
S3P | 3.61
S3D | 3.25

Variant | protein stability index
S3Q | 3.1
S3G | 1.76
S3K | 3.47
S3I | 3.73
S3W | 2.24
S3F | 3.06
S3A | 2.89
S3T | 2.52
S3M | 2.96
S3L | 3.23
S3N | 2.75
S3R | 2.54
T2G | 3.24
T2K | 3.92
T2S | 3.39
T2N | 4.04
T2W | 3.04
T2Q | 2.87
T2P | 3.77
T2E | 4.24
T2A | 2.62
T2D | 4.63
T2I | 2.14
T2F | 3.69

Variant | protein stability index
T2L | 3.48
T2H | 2.25
T2Y | 2.88
T2V | 2.45
T2M | 3.79
T2C | 1.56
T2R | 4.16
F1S | 4.31
F1V | 4.07
F1G | 4.87
F1E | 4.78
F1Q | 4.35
F1P | 5.18
F1H | 4.59
F1K | 4.64
F1W | 3.75
F1M | 4.55
F1D | 4.84
F1I | 4.68
F1R | 3.98
F1L | 5
F1N | 4.84
F1C | 4.43
F1Y | 1.94

Variant | protein stability index
F1T | 4.88
F1A | 4.88
Y6E | 5.43
Y6K | 4.44
Y6M | 3.94
Y6P | 4.14
Y6Q | 4.78
Y6G | 4.76
Y6R | 4.24
Y6S | 4.63
Y6L | 4.3
Y6I | 3.94
Y6C | 4.51
Y6H | 4.48
Y6F | 1.84
Y6N | 4.27
Y6A | 4.56
Y6W | 3.06
Y6T | 4.41
Y6V | 4.37
Y6D | 4.95
